According to the supplement of paper PMC10567573:

B1: VTI1B (parent)
chain: NKLLLSIIILLELAILGGLVYYKF
B2: TLE6 (parent)
chain: FWHDTLTEQLWRIFAGVHDEKAKP

Variants of: B1
Experiment: protein stability index of a GFP-peptide fusion (GPS, HEK-293T) (PSI 1-6); higher = more stable
Conditions: c terminus: a fixed tail appended
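Note: lentivirally expressed fusions sorted by FACS into six bins by GFP to DsRed ratio, PSI derived from sequencing read proportions per bin multiplied by bin number.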

Protein stability index of substitutions, site by site:
V20: T 3.34; W 2.84; M 3.01; Q 3.31; Y 2.87; D 3.38; S 2.32; K 3.48; N 2.81; F 2.98; A 2.12; R 3.41; L 3.59; C 1.34; P 2.94; I 2.23
L16: Q 3.17; W 2.31; S 2.23; R 2.77; P 2.27; T 2.9; V 2.62
L19: F 2.77; K 2.67; M 2.76; I 3.35; T 1.82; H 1.56; D 3.31; S 3.48; N 3.02; Y 2.48; P 3.45; A 3.32; E 4.42; G 3.14; R 2.95; C 2.05; Q 3.21; W 2.91
G17: Y 2.5; T 3.94; L 3.46; Q 3.08; K 3.17; H 2.42; V 2.85; E 3.26; S 3.45; D 1.51; R 2.35; W 3.38; F 3.71; N 2.64; I 2.35; P 2.58; C 3.4
G18: S 3.16; W 2.52; N 2.96; V 2.56; L 2.61; H 2.46; P 2.88; I 3.09; D 2.01; T 2.61; C 3.99; Y 1.86; Q 2.61; F 1.55; A 2.61; R 2.65; E 2.07
K23: N 2.72; Y 2.52; A 2.52; I 2.95; P 3.73; D 2.65; S 2.05; C 2.27; M 4.1; E 2.78; G 2.08; V 3.21; H 1.85; R 2.49; Q 3.58; T 2.41; W 2.23; F 2.1
Y21: P 2.42; F 3.24; E 2.28; K 2.65; V 2.17; Q 3.37; S 1.66; M 2.58; T 2.79; H 2.32; I 2.42; G 3.61; D 3.33; R 2.32; N 2.3; W 2.62; C 3.01; A 1.46; L 3.39
F24: D 3.03; H 2.07; N 1.86; W 1.83; Q 2.77; G 2.52; K 1.52; E 3.85; L 2.53; T 3.12; A 2.47; C 2.01; R 3.27; P 2.79; Y 1.63; S 2.46; V 2.5
Y22: L 3.17; P 3.8; I 3.12; D 2.55; V 3.2; W 3.83; F 2.59; A 3.55; S 1.56; Q 3.06; N 2.47; R 2.92; E 1.54; G 3.7; C 2.53; T 2.95; K 1.71; H 3.4; M 3.54

Variants of: B2
Experiment: as above
Conditions: c terminus: a fixed tail appended

Protein stability index: each site, then its substitutions
P24: I 3.17; L 1.5; A 1.7; M 1.64; Y 1.58; R 1.69
G16: I 1.89; E 1.9; Y 2.51; N 2.07; M 2.14; F 1.72; C 1.83; S 1.82
L10: F 1.68; Y 1.75; N 1.92; P 1.61; I 2.09; E 2.41; D 2.34; S 2.61; V 2.11
R12: D 1.94; L 1.91; V 1.71; S 2.06; I 2.73; N 2.2; H 2.11; Y 1.69; F 2.21
E8: M 1.1; P 1.76; L 2.23; R 1.85; G 1.69; I 1.66; V 2.95
W2: V 3.26; E 2.41; K 2.11; T 2.35; Q 2.87; F 1.9; A 2; N 2.1; P 2.16; S 1.62
I13: K 2.53; S 1.99; A 2.02; W 1.47; P 2.85; C 2.39; M 2.13; T 2.44
K21: I 3.25; G 2.06; A 1.69; Q 1.81; L 2.2; M 2.85; D 2.6; V 3.44; S 1.6; Y 3.31; T 1.85; N 2.2; E 2.08
A22: C 1.81; W 1.38; Y 1.37; H 1.83; Q 1.53; P 2.11; V 1.8; E 1.75
F14: W 1.89; T 2.39; H 1.65; M 2.19; P 1.98; R 2.4
H18: N 2.09; V 1.61; L 2.67; M 2.48; P 1.48; W 1.36; C 2.24; A 2.38; E 2.07; F 1.92
D4: E 1.99; M 2.44; P 2.31; F 3.05; G 2.07
D19: Y 2.97; G 1.72; F 2.61; M 2.1; E 1.62; N 2.8
A15: Y 1.62; P 2.23; M 1.39; K 1.81; E 1.77; N 1.68; H 1.86
V17: H 2.82; N 1.83; F 1.69; R 2.25; K 1.79; W 1.61; I 1.14; T 1.33; L 1.48; A 2.81
Q9: M 1.74; K 1.51; R 2.48; W 2.79; A 3.78; G 2.65
W11: D 2.82; E 2.85; H 2.52; Q 2.21; F 1.59; I 1.79; N 2.19; M 1.76; T 2.35
E20: Q 1.96; V 1.9; Y 2.01; I 1.99; T 1.91; P 1.87
K23: P 1.78; L 1.89; S 2.17; H 2.5; G 1.35; N 2.32; E 1.65
F1: Q 2.54; M 2.12; L 1.93; G 2.32; R 2.48
T5: L 1.97; D 2.13; Y 2.35; G 1.46; N 2.23; W 1.46; F 2.25
T7: A 1.92; C 3.13; V 1.86; G 2.28; K 2.16; H 2.24; L 2.3; Y 2.31; D 2.01; N 1.36
L6: F 1.58; E 1.91; K 2.4; A 2.67; P 1.63; I 2.36; V 1.75
H3: D 2.16; Q 1.69; F 1.96; M 2.25; K 1.82; L 1.9; V 1.65
